Assay results from patent US9951373B2, “Oplophorus-derived luciferases, novel coelenterazine substrates, and methods of use” (Promega Corporation, priority 2010, dated 2018).

Assays:
[1] = Km of L27V reversion variants, PBI-3939; format: biochemical
Description: Relative activities <1 indicate the reversion is detrimental compared to the residue at that site in the L27V variant. Relative activities >1 indicate the reversion is favorable for activity compared to the residue at that site in the L27V variant. Some additional data on these mutants indicated the following: 166K, 54F, 54A and L27V were tested for thermal stability. The T1/2 60° C. for 166K, 54F, and 54A were 87, 74, and 33%, respectively, indicating these substitutions cause a reduction in thermal stability. […] This indicates higher substrate affinity for L27V, particularly for the position 54 substitutions.

[2] = Stability of secreted OgLuc variants in saved media; format: physicochemical; conditions: secreted variant in saved media
Description: To determine if the secretion signal sequence of OgLuc facilitates its secretion, the OgLuc variants 9B8, V2 and L27V were cloned into pF4Ag containing an N-terminal OgLuc secretion signal sequence. The variants were also cloned into vectors without the secretion signal sequence. CHO or HeLa cells were then plates at 100,000 cells/well in 1 mL F12 media with 10% FBS and 1× sodium pyruvate (CHO cells) or DMEM with 10% FBS and 1× sodium pyruvate (HeLa cells) into 12-well plates and incubated overnight at 37° C., 5% CO2.
After the overnight incubation, the cells were transfected with 1 μg plasmid DNA containing 9B8, V2, or L27V with or without the secretion signal sequence using the TRANSIT®-LT1 transfection reagent (Mirus Bio) and OPTI-MEMO media (Invitrogen). The cells were again incubated overnight at 37° C., 5% CO2.
After the second overnight incubation, the media was removed and saved for analysis. […] To 10 μL of cell lysate or saved media from each sample, 50 μL assay buffer with 40 μM PBI-3939 was added, and luminescence measured as described above.
To determine the stability of the secreted variants, 150 μL aliquots of the saved media from each sample was placed at 37° C. or 50° C. The aliquots were then removed at different time points (0, 1, 2, 3, 5, 6, and 7 […]), frozen on dry ice, and kept at −20° C. until assayed. To assay for stability, the media aliquots were thawed to room temperature, and 10 μL of each aliquot was mixed with assay buffer with PBI-3939 (pH 6.0) as described above. Luminescence was measured as above, and the half-life (t50) determined (Table 34).

B1: L27V: 9B8 opt+K33N variant with L27V, T39T, K43R, Y68D (SEQ ID NO: 89) (protein)
chain: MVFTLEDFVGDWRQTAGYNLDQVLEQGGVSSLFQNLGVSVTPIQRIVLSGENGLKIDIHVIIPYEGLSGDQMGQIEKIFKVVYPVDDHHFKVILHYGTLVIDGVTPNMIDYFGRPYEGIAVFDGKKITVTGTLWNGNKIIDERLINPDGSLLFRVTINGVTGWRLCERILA
Km [1]: 18 µM | ½ life 37 C. [2]: 17 days | ½ life 50 C. [2]: 11 h
